First the molecules themselves.
B1: 10 kDa anti-sigma factor (Enterobacteria phage T4), P32267 (parent)
chain: MNKNIDTVREIITVASILIKFSREDIVENRANFIAFLNEIGVTHEGRKLNQNSFRKIVSELTQEDKKTLIDEFNEGFEGVYRYLEMYTNK

Results on 1 variant are retold here after IntAct's records for PubMed 19366670.

The assay covers variants of B1. Conditions: with rpob_ecoli rpoB.
Consider MNKNIDTVREIITVASILIKFSREDIVENRANFIAFLNEIGVTHEGRKLNQNSFRKIVSELTQEDKKTLIDEFDEGFEGVYRYLEMYTNK, for which the “effect of a mutation on the interaction” value is “decreasing interaction strength”.
